Reference: patent US20150299281A1 (ZEALAND PHARMA A S, published 2015)
Numbered stars: 1 amine (or outer) side, 2 acyl side, 3 side chain; on linkers, the order of the positions; unused ones are H or OH. Square brackets hold non-standard residues; d marks the D form. Side chains are listed from the residue outwards. * marks the point of attachment. γGlu = O=C(O)[C@H](CCC(=O)[*:2])N[*:1]; Palmitoyl = CCCCCCCCCCCCCCCC(=O)*; pGlu = O=C1CC[C@@H](C(=O)O)N1; Aib = CC(C)(N)C(=O)O

B1: Compound 7 (peptide)
peptide: H-YGEGTFTSDYSIYLDKKAQRAFVNWLLA[Aib]K-NH2
SMILES: CC[C@H](C)[C@H](NC(=O)[C@H](CO)NC(=O)[C@H](Cc1ccc(O)cc1)NC(=O)[C@H](CC(=O)O)NC(=O)[C@H](CO)NC(=O)[C@@H](NC(=O)[C@H](Cc1ccccc1)NC(=O)[C@@H](NC(=O)CNC(=O)[C@H](CCC(=O)O)NC(=O)CNC(=O)[C@@H](N)Cc1ccc(O)cc1)[C@@H](C)O)[C@@H](C)O)C(=O)N[C@@H](Cc1ccc(O)cc1)C(=O)N[C@@H](CC(C)C)C(=O)N[C@@H](CC(=O)O)C(=O)N[C@@H](CCCCN)C(=O)N[C@@H](CCCCN)C(=O)N[C@@H](C)C(=O)N[C@@H](CCC(N)=O)C(=O)N[C@@H](CCCNC(=N)N)C(=O)N[C@@H](C)C(=O)N[C@@H](Cc1ccccc1)C(=O)N[C@H](C(=O)N[C@@H](CC(N)=O)C(=O)N[C@@H](Cc1c[nH]c2ccccc12)C(=O)N[C@@H](CC(C)C)C(=O)N[C@@H](CC(C)C)C(=O)N[C@@H](C)C(=O)NC(C)(C)C(=O)N[C@@H](CCCCN)C(N)=O)C(C)C
B2: Compound 52 (peptide)
peptide: H-Y[Aib]EGTFTSDYSIYLDEK([γGlu-Palmitoyl])AAKDFVEWLLSA-NH2
SMILES: CCCCCCCCCCCCCCCC(=O)N[C@@H](CCC(=O)NCCCC[C@H](NC(=O)[C@H](CCC(=O)O)NC(=O)[C@H](CC(=O)O)NC(=O)[C@H](CC(C)C)NC(=O)[C@H](Cc1ccc(O)cc1)NC(=O)[C@@H](NC(=O)[C@H](CO)NC(=O)[C@H](Cc1ccc(O)cc1)NC(=O)[C@H](CC(=O)O)NC(=O)[C@H](CO)NC(=O)[C@@H](NC(=O)[C@H](Cc1ccccc1)NC(=O)[C@@H](NC(=O)CNC(=O)[C@H](CCC(=O)O)NC(=O)C(C)(C)NC(=O)[C@@H](N)Cc1ccc(O)cc1)[C@@H](C)O)[C@@H](C)O)[C@@H](C)CC)C(=O)N[C@@H](C)C(=O)N[C@@H](C)C(=O)N[C@@H](CCCCN)C(=O)N[C@@H](CC(=O)O)C(=O)N[C@@H](Cc1ccccc1)C(=O)N[C@H](C(=O)N[C@@H](CCC(=O)O)C(=O)N[C@@H](Cc1c[nH]c2ccccc12)C(=O)N[C@@H](CC(C)C)C(=O)N[C@@H](CC(C)C)C(=O)N[C@@H](CO)C(=O)N[C@@H](C)C(N)=O)C(C)C)C(=O)O
B3: Compound 55 (peptide)
peptide: H-Y[Aib]EGTFTSDYSIYLDSKAAHDFVEWLLSAGPSSGAPPPS-NH2
SMILES: CC[C@H](C)[C@H](NC(=O)[C@H](CO)NC(=O)[C@H](Cc1ccc(O)cc1)NC(=O)[C@H](CC(=O)O)NC(=O)[C@H](CO)NC(=O)[C@@H](NC(=O)[C@H](Cc1ccccc1)NC(=O)[C@@H](NC(=O)CNC(=O)[C@H](CCC(=O)O)NC(=O)C(C)(C)NC(=O)[C@@H](N)Cc1ccc(O)cc1)[C@@H](C)O)[C@@H](C)O)C(=O)N[C@@H](Cc1ccc(O)cc1)C(=O)N[C@@H](CC(C)C)C(=O)N[C@@H](CC(=O)O)C(=O)N[C@@H](CO)C(=O)N[C@@H](CCCCN)C(=O)N[C@@H](C)C(=O)N[C@@H](C)C(=O)N[C@@H](Cc1c[nH]cn1)C(=O)N[C@@H](CC(=O)O)C(=O)N[C@@H](Cc1ccccc1)C(=O)N[C@H](C(=O)N[C@@H](CCC(=O)O)C(=O)N[C@@H](Cc1c[nH]c2ccccc12)C(=O)N[C@@H](CC(C)C)C(=O)N[C@@H](CC(C)C)C(=O)N[C@@H](CO)C(=O)N[C@@H](C)C(=O)NCC(=O)N1CCC[C@H]1C(=O)N[C@@H](CO)C(=O)N[C@@H](CO)C(=O)NCC(=O)N[C@@H](C)C(=O)N1CCC[C@H]1C(=O)N1CCC[C@H]1C(=O)N1CCC[C@H]1C(=O)N[C@@H](CO)C(N)=O)C(C)C
B4: Compound 6 (peptide)
peptide: [pGlu]YAEGTFTSDYSIYLDKKAQRAFVNWLLA[Aib]K-NH2
SMILES: CC[C@H](C)[C@H](NC(=O)[C@H](CO)NC(=O)[C@H](Cc1ccc(O)cc1)NC(=O)[C@H](CC(=O)O)NC(=O)[C@H](CO)NC(=O)[C@@H](NC(=O)[C@H](Cc1ccccc1)NC(=O)[C@@H](NC(=O)CNC(=O)[C@H](CCC(=O)O)NC(=O)[C@H](C)NC(=O)[C@H](Cc1ccc(O)cc1)NC(=O)[C@@H]1CCC(=O)N1)[C@@H](C)O)[C@@H](C)O)C(=O)N[C@@H](Cc1ccc(O)cc1)C(=O)N[C@@H](CC(C)C)C(=O)N[C@@H](CC(=O)O)C(=O)N[C@@H](CCCCN)C(=O)N[C@@H](CCCCN)C(=O)N[C@@H](C)C(=O)N[C@@H](CCC(N)=O)C(=O)N[C@@H](CCCNC(=N)N)C(=O)N[C@@H](C)C(=O)N[C@@H](Cc1ccccc1)C(=O)N[C@H](C(=O)N[C@@H](CC(N)=O)C(=O)N[C@@H](Cc1c[nH]c2ccccc12)C(=O)N[C@@H](CC(C)C)C(=O)N[C@@H](CC(C)C)C(=O)N[C@@H](C)C(=O)NC(C)(C)C(=O)N[C@@H](CCCCN)C(N)=O)C(C)C
B5: Compound 5 (peptide)
peptide: H-Y[Aib]EGTFTSDYSIYLDKKAQRAFVNWLLA[Aib]K-NH2
SMILES: CC[C@H](C)[C@H](NC(=O)[C@H](CO)NC(=O)[C@H](Cc1ccc(O)cc1)NC(=O)[C@H](CC(=O)O)NC(=O)[C@H](CO)NC(=O)[C@@H](NC(=O)[C@H](Cc1ccccc1)NC(=O)[C@@H](NC(=O)CNC(=O)[C@H](CCC(=O)O)NC(=O)C(C)(C)NC(=O)[C@@H](N)Cc1ccc(O)cc1)[C@@H](C)O)[C@@H](C)O)C(=O)N[C@@H](Cc1ccc(O)cc1)C(=O)N[C@@H](CC(C)C)C(=O)N[C@@H](CC(=O)O)C(=O)N[C@@H](CCCCN)C(=O)N[C@@H](CCCCN)C(=O)N[C@@H](C)C(=O)N[C@@H](CCC(N)=O)C(=O)N[C@@H](CCCNC(=N)N)C(=O)N[C@@H](C)C(=O)N[C@@H](Cc1ccccc1)C(=O)N[C@H](C(=O)N[C@@H](CC(N)=O)C(=O)N[C@@H](Cc1c[nH]c2ccccc12)C(=O)N[C@@H](CC(C)C)C(=O)N[C@@H](CC(C)C)C(=O)N[C@@H](C)C(=O)NC(C)(C)C(=O)N[C@@H](CCCCN)C(N)=O)C(C)C
B6: Compound 53 (peptide)
peptide: H-Y[Aib]EGTFTSDYSIYLDSK([γGlu-Palmitoyl])AAHDFVEWLLSAGPSSGAPPPS-NH2
SMILES: CCCCCCCCCCCCCCCC(=O)N[C@@H](CCC(=O)NCCCC[C@H](NC(=O)[C@H](CO)NC(=O)[C@H](CC(=O)O)NC(=O)[C@H](CC(C)C)NC(=O)[C@H](Cc1ccc(O)cc1)NC(=O)[C@@H](NC(=O)[C@H](CO)NC(=O)[C@H](Cc1ccc(O)cc1)NC(=O)[C@H](CC(=O)O)NC(=O)[C@H](CO)NC(=O)[C@@H](NC(=O)[C@H](Cc1ccccc1)NC(=O)[C@@H](NC(=O)CNC(=O)[C@H](CCC(=O)O)NC(=O)C(C)(C)NC(=O)[C@@H](N)Cc1ccc(O)cc1)[C@@H](C)O)[C@@H](C)O)[C@@H](C)CC)C(=O)N[C@@H](C)C(=O)N[C@@H](C)C(=O)N[C@@H](Cc1c[nH]cn1)C(=O)N[C@@H](CC(=O)O)C(=O)N[C@@H](Cc1ccccc1)C(=O)N[C@H](C(=O)N[C@@H](CCC(=O)O)C(=O)N[C@@H](Cc1c[nH]c2ccccc12)C(=O)N[C@@H](CC(C)C)C(=O)N[C@@H](CC(C)C)C(=O)N[C@@H](CO)C(=O)N[C@@H](C)C(=O)NCC(=O)N1CCC[C@H]1C(=O)N[C@@H](CO)C(=O)N[C@@H](CO)C(=O)NCC(=O)N[C@@H](C)C(=O)N1CCC[C@H]1C(=O)N1CCC[C@H]1C(=O)N1CCC[C@H]1C(=O)N[C@@H](CO)C(N)=O)C(C)C)C(=O)O
B7: Compound 54 (peptide)
peptide: H-Y[Aib]EGTFTSDYSIYLEKK([γGlu-Palmitoyl])AAKEFVEWLLSAGPSSGAPPPS-NH2
SMILES: CCCCCCCCCCCCCCCC(=O)N[C@@H](CCC(=O)NCCCC[C@H](NC(=O)[C@H](CCCCN)NC(=O)[C@H](CCC(=O)O)NC(=O)[C@H](CC(C)C)NC(=O)[C@H](Cc1ccc(O)cc1)NC(=O)[C@@H](NC(=O)[C@H](CO)NC(=O)[C@H](Cc1ccc(O)cc1)NC(=O)[C@H](CC(=O)O)NC(=O)[C@H](CO)NC(=O)[C@@H](NC(=O)[C@H](Cc1ccccc1)NC(=O)[C@@H](NC(=O)CNC(=O)[C@H](CCC(=O)O)NC(=O)C(C)(C)NC(=O)[C@@H](N)Cc1ccc(O)cc1)[C@@H](C)O)[C@@H](C)O)[C@@H](C)CC)C(=O)N[C@@H](C)C(=O)N[C@@H](C)C(=O)N[C@@H](CCCCN)C(=O)N[C@@H](CCC(=O)O)C(=O)N[C@@H](Cc1ccccc1)C(=O)N[C@H](C(=O)N[C@@H](CCC(=O)O)C(=O)N[C@@H](Cc1c[nH]c2ccccc12)C(=O)N[C@@H](CC(C)C)C(=O)N[C@@H](CC(C)C)C(=O)N[C@@H](CO)C(=O)N[C@@H](C)C(=O)NCC(=O)N1CCC[C@H]1C(=O)N[C@@H](CO)C(=O)N[C@@H](CO)C(=O)NCC(=O)N[C@@H](C)C(=O)N1CCC[C@H]1C(=O)N1CCC[C@H]1C(=O)N1CCC[C@H]1C(=O)N[C@@H](CO)C(N)=O)C(C)C)C(=O)O

Experiments:
human GIP receptor = target: T1, human GIP receptor (human, UniProt P48546 22-466); assay: cell-based or functional assay
T1 sequence (looked up): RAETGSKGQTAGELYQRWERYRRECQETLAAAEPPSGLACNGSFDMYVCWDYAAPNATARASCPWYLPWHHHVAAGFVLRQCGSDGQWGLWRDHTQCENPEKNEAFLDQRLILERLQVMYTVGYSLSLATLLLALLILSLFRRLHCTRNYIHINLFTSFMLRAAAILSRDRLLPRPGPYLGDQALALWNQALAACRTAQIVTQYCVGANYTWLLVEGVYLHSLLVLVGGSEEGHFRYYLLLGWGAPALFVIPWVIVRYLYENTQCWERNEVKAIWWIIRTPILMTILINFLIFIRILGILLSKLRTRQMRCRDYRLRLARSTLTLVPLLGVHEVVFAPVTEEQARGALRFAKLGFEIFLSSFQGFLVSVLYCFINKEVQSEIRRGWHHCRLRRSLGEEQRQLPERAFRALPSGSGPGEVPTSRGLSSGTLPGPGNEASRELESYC

human GLP-1 receptor = human GLP-1 receptor (human, UniProt P43220 24-463); assay: cell-based or functional assay

Binder | EC50, cAMP induction in HEK293 cells expressing human GIP R (human GIP receptor) | EC50, cAMP induction in HEK293 cells expressing human GLP-1 R (human GLP-1 receptor)
B1 | 0.21 nM | 0.024 nM
B2 | 0.087 nM | 0.18 nM
B3 | 0.0071 nM | 0.0087 nM
B4 | 0.27 nM | 0.97 nM
B5 | 0.031 nM | 0.023 nM
YAEGTFTSDYSIALDKKAQRAFVNWLVAAKPSSGAPPPS (Aib at 2 and 29; K(hexadecanoyl-isoGlu) at 17; C-terminal amide) [Compound 36] | – | 0.015 nM
B6 | 0.062 nM | 0.092 nM
B7 | 0.037 nM | 0.033 nM
